Laboratory results reported in article PMC9849366, “Evolutionary fine-tuning of residual helix structure in disordered proteins manifests in complex structure and lifetime” (Communications Biology, 2023).
Primed or numbered codes have the meaning given here. FITC′ = fluorescein isothiocyanate

B1: DREB2A(244-272)-WT (peptide, UniProt O82132 244-272, looked up)
chain: WPNDVDQSHLDSSDMFDVDELLRDLNGDD
notes: Expressed as GST-tagged peptide; 13C,15N-labelled for NMR, unlabelled for ITC; also called DREB2A-WT; source: E. coli BL21(DE3), purified (Glutathione Sepharose 4B, reversed phase Vydac C18)
B2: RCD1-RST(499-572) (domain or fragment, Arabidopsis thaliana, UniProt Q8RY59 499-572, looked up)
chain: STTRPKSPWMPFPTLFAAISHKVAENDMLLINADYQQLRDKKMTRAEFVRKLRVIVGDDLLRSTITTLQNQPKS
notes: also called AtRCD1-RST; αα-hub RCD1-RST; source: E. coli BL21(DE3), purified (Source 15S cation exchange, Superdex 75 SEC)

Assays:
[1] = target: DREB2A 244-272 (Arabidopsis thaliana) (UniProt O82132); assay: stopped-flow kinetics; details: cited from earlier work
RCD1-RST(499-572) [2] = target: B2; assay: stopped-flow fluorescence spectroscopy; association and displacement (dissociation) kinetics; 10 °C, 50 mM HEPES pH 7.4, 300 mM NaCl; details: both partners purified
RCD1-RST(499-572) [3] = target: B2; assay: stopped-flow fluorescence spectroscopy; association and displacement (dissociation) kinetics; 10 °C, 50 mM HEPES pH 7.4, 500 mM NaCl; details: both partners purified
RCD1-RST(499-572) [4] = target: B2; assay: stopped-flow fluorescence spectroscopy; association kinetics; 10 °C, 50 mM HEPES pH 7.4, 50 mM NaCl; details: both partners purified
RCD1-RST(499-572) [5] = target: B2; assay: stopped-flow fluorescence spectroscopy; association kinetics; 10 °C, 50 mM HEPES pH 7.4, 150 mM NaCl; details: both partners purified
RCD1-RST(499-572) [6] = target: B2; assay: stopped-flow fluorescence spectroscopy; 0.1 µM FITC-DREB2A peptide mixed with 1-6 µM RCD1-RST(499-572) (kon); preformed complex 1:0.1 µM displaced with 5-60 µM unlabelled DREB2A(244-272) (koff); Kd from the rate constants; 10 °C, 50 mM HEPES pH 7.4, 100 mM NaCl; details: both partners purified
RCD1-RST(499-572) [7] = target: B2; assay: stopped-flow fluorescence spectroscopy; association and displacement (dissociation) kinetics; 10 °C, 50 mM HEPES pH 7.4, 200 mM NaCl; details: both partners purified
RCD1-RST(499-572) [8] = target: B2; assay: stopped-flow fluorescence spectroscopy; 0.1 µM FITC-DREB2A peptide mixed with 1-6 µM RCD1-RST(499-572) (kon); preformed complex 1:0.1 µM displaced with 5-60 µM unlabelled DREB2A(244-272) (koff); Kd from the rate constants; 10 °C, 50 mM HEPES pH 7.4, 100 mM NaCl; details: both partners purified; remark: listed apart in the source
RCD1-RST(499-572) [9] = target: B2; assay: stopped-flow fluorescence spectroscopy; association and displacement (dissociation) kinetics; 10 °C, 50 mM HEPES pH 7.4, 800 mM NaCl; details: both partners purified
RCD1-RST(499-572) [10] = target: B2; assay: ITC; 9-12 µM DREB2A(244-272) peptide in the cell, 92-100 µM RCD1-RST(499-572) in the syringe; 25 °C, 50 mM HEPES pH 7.4, 300 mM NaCl; one set of sites model; n = 3; details: both partners purified
DREB2A(244-272)-WT = target: B1; assay: as above; details: both partners purified

Molecule | kon (RCD1-RST(499-572) [2]) [M⁻¹ s⁻¹] | kon (RCD1-RST(499-572) [3]) [M⁻¹ s⁻¹] | kon (RCD1-RST(499-572) [5]) [M⁻¹ s⁻¹] | kon (RCD1-RST(499-572) [6]) [M⁻¹ s⁻¹] | kon (RCD1-RST(499-572) [7]) [M⁻¹ s⁻¹] | Kd (RCD1-RST(499-572) [8]) [nM] | koff (RCD1-RST(499-572) [8]) [s⁻¹] | kon (RCD1-RST(499-572) [8]) [M⁻¹ s⁻¹] | koff (RCD1-RST(499-572) [9]) [s⁻¹] | kon (RCD1-RST(499-572) [9]) [M⁻¹ s⁻¹] | Kd (RCD1-RST(499-572) [10]) [nM] | further results
RCD1 499-572 (from UniProt Q8RY59) |  |  |  |  |  |  |  |  |  |  |  | Kd [1]: 0.8 nM
{FITC′}-NDVDQSHLDSSDMFDVDELLGDLNGDD-NH2 (peptide, UniProt O82132 246-272, looked up, also: acetylation stated, site not given here, also called fluorescently labeled DREB2A(244-272)-R266G; DREB2A-R266G; source: synthetic peptide, bought: TAG Copenhagen A/S (>98% purity)) [FITC-DREB2A(246-272) R266G] | 5.59e+07 | 2.1e+07 | 1.75e+08 | 2.06e+08 | 1.2e+08 | 3 | 0.7 | 2.3e+08 | 5.29 | 1.06e+07 |  | kon (RCD1-RST(499-572) [4]): 4.13e+08 M⁻¹ s⁻¹
{FITC′}-NDVDQSHLDSSDMFDVDELLRDLNGDD-NH2 (peptide, UniProt O82132 246-272, looked up, also: acetylation stated, site not given here, also called fluorescently labeled DREB2A(244-272)-WT; source: synthetic peptide, bought: TAG Copenhagen A/S (>98% purity)) [FITC-DREB2A(246-272) WT] | 3.6e+07 | 2.3e+07 | 1.18e+08 | 2.45e+08 | 4.5e+07 |  |  |  | 1.78 | 8e+06 |  | koff (RCD1-RST(499-572) [2]): 0.53 s⁻¹; koff (RCD1-RST(499-572) [3]): 0.94 s⁻¹; kon (RCD1-RST(499-572) [4]): 3.35e+08 M⁻¹ s⁻¹; koff (RCD1-RST(499-572) [6]): 0.18 s⁻¹; koff (RCD1-RST(499-572) [7]): 0.4 s⁻¹
{FITC′}-NDVDQSHLDSSDMFDVDELLRLLNGDD-NH2 (peptide, UniProt O82132 246-272, looked up, also: acetylation stated, site not given here, also called fluorescently labeled DREB2A(244-272)-D267L; DREB2A-D267L; source: synthetic peptide, bought: TAG Copenhagen A/S (>98% purity)) [FITC-DREB2A(246-272) D267L] | 8.1e+07 | 4.5e+07 | 1.49e+08 | 1.78e+08 | 1.42e+08 | 0.13 | 0.03 | 2.35e+08 | 0.223 | 2.2e+07 |  | 
{FITC′}-NDVDQSHLDSSDMFDVDELLRALNGDD-NH2 (peptide, UniProt O82132 246-272, looked up, also: acetylation stated, site not given here, also called DREB2A-D267A; DREB2A(244-272) variant D267A; source: synthetic peptide, bought: TAG Copenhagen A/S (>98% purity)) [FITC-DREB2A(246-272) D267A] |  |  |  |  |  | 0.32 | 0.07 | 2.22e+08 |  |  |  | 
{FITC′}-NDVDQSHLDSSDMFDVDELLADLNGDD-NH2 (peptide, UniProt O82132 246-272, looked up, also: acetylation stated, site not given here, also called DREB2A-R266A; DREB2A(244-272) variant R266A; source: synthetic peptide, bought: TAG Copenhagen A/S (>98% purity)) [FITC-DREB2A(246-272) R266A] |  |  |  |  |  | 1.5 | 0.383 | 2.46e+08 |  |  |  | 
WPNDVDQSHLDSSDMFDVDELLRLLNGDD (peptide, UniProt O82132 244-272, looked up, Expressed as GST-tagged peptide; 13C,15N-labelled for NMR, unlabelled for ITC; also called DREB2A-D267L; source: E. coli BL21(DE3), purified (Glutathione Sepharose 4B, reversed phase Vydac C18)) [DREB2A(244-272)-D267L] |  |  |  |  |  |  |  |  |  |  | 66 | 
B1 |  |  |  |  |  |  |  |  |  |  | 84 | 
B2 |  |  |  |  |  |  |  |  |  |  |  | dH (DREB2A(244-272)-WT): -16.3 kcal/mol; stoichiometry N (DREB2A(244-272)-WT): 0.84
WPNDVDQSHLDSSDMFDVDELLGDLNGDD (peptide, UniProt O82132 244-272, looked up, Expressed as GST-tagged peptide; 13C,15N-labelled for NMR, unlabelled for ITC; also called DREB2A-R266G; source: E. coli BL21(DE3), purified (Glutathione Sepharose 4B, reversed phase Vydac C18)) [DREB2A(244-272)-R266G] |  |  |  |  |  |  |  |  |  |  | 369 | 
